The data set is described as follows: protein stability index of a GFP-peptide fusion (GPS, HEK-293T) (PSI 1-6); higher = more stable. To be noted: c terminus: native.

The source of these data is the supplement of paper PMC10567573.
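Further: lentivirally expressed fusion library, cells FACS-sorted into six equal-sized GFP/DsRed ratio bins, PSI computed from sequencing read fractions per bin weighted by bin number.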

B1: POLD2 addR (peptide)
chain: CQPISFSGFGAEDDDLGGLGLGPR
Take B1: the protein stability index (parent: NP_006221.1) amounted to 4.36.

B2: TRPA1 addR (peptide)
chain: EQRNSRWNTVLRAVKAKTHHLEPR
Regarding B2, the protein stability index (parent: NP_015628.1) is 4.5.

B3: BEX2 addR (peptide)
chain: HSLRAVSTDPPHHDHHDEFCLMPR
For B3, the protein stability index (parent: NP_116010.1) was determined as 4.61.

B4: SNF8 addR (peptide)
chain: LPALFTDLYSQEITAEEAREALPR
B4: the protein stability index (parent: NP_009172.2) is 3.55.
